Reference: PMC6079037, “Hydra Mesoglea Proteome Identifies Thrombospondin as a Conserved Component Active in Head Organizer Restriction” (Scientific Reports, 2018)
Ends that are not written are not given here.

Key:
[1] = target: the molecule itself; test: non-reducing SDS-PAGE and immunoblot; V5-tagged proteins from conditioned media of transfected COS7 cells, collected on Talon resin, boiled in SDS sample buffer without DTT; 7% SDS-polyacrylamide gels; V5 antibody blot
[2] = target: the molecule itself; test: AUC; sedimentation equilibrium; HsTSP1cc 50 uM in PBS, 20 °C, 20,000-50,000 rpm; fitted to a single, ideal species model

B1: human TSP1.V5 (thrombospondin-1 with V5 tag) (natural protein)
chain: not shown
notes: human thrombospondin-1 (TSP1); calculated monomer molecular weight of TSP1.V5 132.3 kDa
stoichiometry N [1]: 3

B2: HsTSP1cc, synthetic peptide of the trimerizing coiled-coil domain of human TSP1 (residues 275-314 of TSP1) (peptide)
peptide: Ac-GDELSSMVLELRGLRTIVTTLQDSIRKVTEENKELANELRRGW
notes: added residue before the TSP1 stretch; human thrombospondin-1 (TSP1), coiled-coil domain, residues 275-314; added residues after the TSP1 stretch (the Trp is used to measure concentration at 280 nm); 43-mer; Made on Rink amide resin, so the C-terminus is probably an amide (surmised); source: synthetic peptide (Fmoc solid phase on Rink amide resin), purified by RP-HPLC
stoichiometry N [2]: 2.96 x monomer mass
